According to the DeepSol protein solubility set:

Assay: soluble on expression in E. coli; label from the status in PepcDB or PDB records

Row | Sequence | soluble on expression in E. coli
1 | SLMAGSFCWRMLGLVSKVGNRARCFSSVAASEEELLDFSGSELQFNSCSLHLSLHPFFNFLLGIHSCFVCKESKTDVKRCVVTQCGKFYHEACVKKYPLTVFESRGFRCPLHSCVSCHASNPSNPRPSKGKMMRCVRCPVAYHSGDACLAAGCSVIASNSIICTAHFTARKGKRHHAHVNVSWCFVCSKGGSLLCCESCPAAFHPDCLNIEMPDGSWFCNDCRAGKKLHFQDIIWVKLGNYRWWPAEVCHPKNVPPNIQKMKHEIGEFPVFFFGSKDYYWTHQARVFPYMEGDRGSRYQGVRGIGRVFKNALQEAEARFREIKLQREARETQESERKPPPYKHIKVNKPYGKVQIYTADISEIPKCNCKPTDENPCGFDSECLNRMLMFECHPQVCPAGEFCQNQCFTKRQYPETKIIKTDGKGWGLVAKRDIRKGEFVNEYVGELIDEEECMARIKHAHENDITHFYMLTIDKDRIIDAGPKGNYSRFMNHSCQPNCETLKWTVNGDTRVGLFAVCDIPAGTELTFNYNLDCLGNEKTVCRCGASNCSGFLGDRPKTSTTLSSEEKGKKTKKKTRRRRAKGEGKRQSEDECFRCGDGGQLVLCDRKFCTKAYHLSCLGLGKRPFGKWECPWHHCDVCGKPSTSFCHLCPNSFCKEHQDGTAFSCTPDGRSYCCEHDLGAASVRSTKTEKPPPEPGKPKGKRRRRRGWRRVTEGK | soluble
2 | SLNKKFSYPIPNFTDRRKSIIFWRYLRFQARKILYFPQVRLLEKTLNKEKNKHLKDFFSQRPYACYNATRRFCDKSFKANERVKTLIYDVDKGLACFKFLPEEQIIFSFDEDFELFLGYNYNVCEEGFWAFSLKFKKYTILQCNFCFTLENNLLLSCIQGHKYKDFNILEINKILTKKCHGLRPVALLIECSKMLCEILKLQTTLGVHEKNQIRSQKGKEKGYFVDYQKIWLENGGELIKINKHKYYKLHHSQKNLEEIPSQKRSMYKKRFAMLEEIKTNLDKTLSIQD | not soluble
3 | SLNSLASHTFISGSTGTGKSNTVYEILDEVRKHGVKFLVVEPVKGEYKHIFGNDENVSVYGTNPELSDLLRINPFAFPKGIHVLEHLDRLIEIFNVCWPMYAAMPAVLKNAVERAYEDSGWDLLKSINSYGDLYPTFADVTRNIKEIIDSSEYDNENKGAYKGSLLTRLESLTNGINGMIFTNQAITDKELFDENVIIDLSRVGSTETKSLIMGMLVLKLQEYRMTHTDSLNNILKHVTVLEEAHNILKRTSNEQSMEDSNLVGKSVEMIANGIAEMRTYGEGFIIADQAPGLMDMAVIRNTNTKIIMRLPDFSDRELVGKSANL | not soluble
4 | SLPKFGIEKRYNAAKSDIVSYLEKNNRNTSLGARFDMWENALIAIKEAPIFGHGSDGYDEFRHKQVKSKQMAKTTLNFGSLHNQYLESWVKRG | not soluble
5 | SLPNGEGLQLKENSESEGVSCHYWSLFDGHAGSGAAVVASRLLQHHITEQLQDIVDILKNSAVLPPTCLGEEPENTPANSRTLTRAASLRGGVGAPGSPSTPPTRFFTEKKIPHECLVIGALESAFKEMDLQIERERSSYNISGGCTALIVICLLGKLYVANAGDSRAIIIRNGEIIPMSSEFTPETERQRLQYLAFMQPHLLGNEFTHLEFPRRVQRKELGKKMLYRDFNMTGWAYKTIEDEDLKFPLIYGEGKKARVMATIGVTRGLGDHDLKVHDSNIYIKPFLSSAPEVRIYDLSKYDHGSDDVLILATDGLWDVLSNEEVAEAITQFLPNCDPDDPHRYTLAAQDLVMRARGVLKDRGWRISNDRLGSGDDISVYVIPLIHGNKLS | not soluble
6 | SLQCLRFPGLALPHTRAPSPLGPTRDPVATFLETCREPGSQPAGPASLRAEYLPPSVASIKVSAELLRAALKDGHSGVPLCCATLQWLLAENAAVDVVRARALSSIQGVAPDGANVHLIVREVAMTDLCPAGPIQAVEIQVESSSLADICRAHHAVVGRMQTMVTEQAAQGSSAPDLRVQYLRQIHANHETLLREVQTLRDRLCTEDEASSCATAQRLLQVYRQLRHPSLILL | soluble
7 | SLRETVFRNARVLDVARGAYDDGQSVVVRDGVIVAVATDAHRLAGADAREIDVAGRVLMPGLCDAHVHVTAFTPDFALLGRTAPSYVTVRAQDILQGMIGRGFTTVRDAGGADWGLAKALAEGAIVGPRLLYCGHALSQTGGHADMRGPGQHNLDQCLCCAGLGQVCDGVPEMRRACREEIRKGATHLKLMVSGGVASPTDRIDSTQFALDELRAACEEAEAANIPVMAHAYTGRAAVRALEAGVSSIEHGNLIDQAAIDTLLRLDRWLVPTLATYHALAAEGVEAGMPAELNKKVYTVLEAGTEALRMAAKAGVKLVYGSDLLGTMQRHQLTEFAIRAVVQDPIDILRAATTQAAALFRMEDRIGAVRAGYLADLLIVDGDVLHSVAPWSAPEETIKMVMKDGEILVSR | soluble
8 | SLRLLLELKALNSIDKKQLSNYLIQGFIYNILKNTEYSWLHNWKKEKYFNFTLIPKKDIIENKRYYLIISSPDKRFIEVLHNKIKDLDIITIGLAQFQLRKTKKFDPKLRFPWVTITPIVLREGKIVILKGDKYYKVFVKRLEELKKYNLIKKKEPILEEPIEISLNQIKDGWKIIDVKDRYYDFRNKSFSAFSNWLRDLKEQSLRKYNNFCGKNFYFEEAIFEGFTFYKTVSIRIRINRGEAVYIGTLWKELNVYRKLDKEEREFYKFLYDCGLGSLNSMGFGFVNTKKNSAR | soluble
9 | SLSERTFNWKNKDIRAQVDVVDSKLLPTLLLRNALVLNPYVKQWLKKNIWIYQDRIVYVGHELPNRAEEIHTIDCEGKYIVPGYIEPHAHPFQIYNPQTLAEYVSQYGTTTFVNDNLFLLLQSGKKKALTILNELKKQPVQYFWWSRYDLQTEVLNEDHVLPFDVRKQWIEHPDVIQGGEMTGWPRLVDGDDLMLHCMQATKKQRKRIEGHFPGASDKTLTKMKLFGADCDHEAMTGDEVMRRLELGYYVSLRNSSIRPDVRKILQELHEKGFRYYDHFFYTTDGATPNFYKGGMTNELIRIALEEGVPAIDAYNMASFNIAKYYQMDDYLGVVGPGRLASLNILEDPLNPNPVTVLSKGTILRENGCDLKAFTKTDWHKGGLVPLELSYDMTMDDLQFSMPMGVKMRNAVIMEPYMIEIDNSMEQLSFDHDESYLTMLDRHGKWRVNTMIKGFASSVQGFVSSFTTTGDIVAIGKNKADMLLAFARMKEIGGGIVLAENGNILHEIPLALCGCASSEAYEDVLEKEQKLRDLLTERGYEFCDPIYTLLFLQSTHLPYIRITPRGIFDVMKKTVLFPSIMR | soluble
10 | SLSMKLLIADDEDTIRNGIAKYIKLHTDRFSQIYLAENGQQALDIILQYQPDMMLLDVQMPLKTGLEVLQEAQKLSLVPKTIILSGYDDFEYARKALRYGAKDYLLKPCRSSEILEAINKLVQEQLGTKEG | not soluble
11 | SLSRRKPNPVIVADIRQAEGALAEIATIDRKVGEIEAQMNEAIDAAKARASQKSAPLLARRKELEDGVATFATLNKTEMFKDRKSLDLGFGTIGFRLSTQIVQMSKITKDMTLERLRQFGISEGIRIKEDVNKEAMQGWPDERLEMVGLKRRTTDAFYIEINREEVADTAA | soluble
12 | SLTAAENIQEQLYPAPIKTVEEGSPAARAGVRPGDVLLRVNGQPVTDVLAYRHQLERGVVTLEVARPHEAPRVMTGVAGTAQDHHRLMLPQPPSLDETLTFTVEWEDPGLDFEEVLFDGIKKCANKCDFCYVHQMPRGFRKSLYIMDDDYRLSFLYGSFVTLTNLTEGDINRILDENLSPLYVSVHTANQDLRQDMMKWWKLKVKDPQAVQIREMIERLESIDLYTQIVLVPERNDRENLDETVEYLSSRPNVISAAVVPIGLTAHRTNLPDVRTFTPEEAQDTLRRLNVWRRKFLAERGTRFIFPSDELYLLAGEPLPTEEEYEGFPMLENGVGMIRDFLTEALPPLPAALPEPRKVILGTGLLFADSLARAIEPLRQIEGLDIEVRAIENKTFGKVTTVAGLLTGRCFRHAVQPGEADLLIVPPTTLRYGTELMIDDTSLGELRRELKMDVRAGGATLGELARVVLEGAQSSGHQFGMSAHAVKDSGRDDVAPSASRAQGGAAPEESLEEDVAESGMHGRGQA | soluble
13 | SLVKLSTPLRVVTTLPHQPGRTGYIVFKKVPESFRCDSIASFYRRVRRSMGLREAVVFLTAAEVDRPLHEVIDEPETHIIATVGLKPPACPGGTAGAPRPGTINIAVATSAGLSRAGAIDLLRVVAEAKAAAAAEALLPCLHRATGTATDAIAVLHTPGATDFSGFYTRLGGLVGRSLYFALVDAAVARRGPDSLLRALTGMSMEGLLELFRRVYMQSPIPGVPVEEALGRAGRMLERMMRDPNVAALLIAARELDLHGSAGAIPGLSRSGYKGDSKAIVADELLAAALAEYLAGFKGLLATIWVEKLKSMGLADAGLPMFMDDMVSAVVGSLVSRLHDEVREG | soluble
14 | SLVYDSNNNLIADLGAEKRESISSDSIPMKLVNAVTSIEDHRFFKHRGVDIYRIIGAAWSNLLHKSTQGGSTLDQQLIKLAYFSTKESDQTLKRKAQEVWLSLQMEKKYTKEEILTFYVNKVYMGNGNYGMRTAAKSYYGKDLKDLSIAQLATLAGIPQAPTQYDPYAQP | not soluble
15 | SLYAISISERTLEKVNAIIESEIKPNAYLASGDLLVHTSRLFMDTPYQANTLVHHSDLPYALVVNFDGMDCFTYLDYVVALSQASDTPSFFSSLMNIRYKKSHIHFYDRKHFFSDWYALSPQIAIDITEKMSPDAITIPKQLNQKVEGGEYIQGLGVIPRMITYIPSDKITQSVLDNLQNGDLVGVYSPKIGLDVTHTGIIVKENNQILYRNASSLSKYNKVVDLPFMDYIRSKPGIVVLRVE | soluble
16 | SMALYRVVLLGDPGVGKTSLASLFAGKQERDLHEQLGEDVYERTLTVDGEDTTLVVVDTWEAEKLDKSWSQESCLQGGSAYVIVYSIADRGSFESASELRIQLRRTHQADHVPIILVGNKADLARCREVSVEEGRACAVVFDCKFIETSATLQHNVAELFEGVVRQLRLRRRDSA | soluble
17 | SMDTNADIYDQTASTFFPNGEAMWKKMVEDLKKAEKFIFLEYYIIEEGLMWNRILDILEQKVAQGVEVKMLYDDIGCMATLTGDYAHRLRQLGIEAHKFNKVIPRLTVAYNNRDHRKILIVDGQIAYTGGVNLADEYINHVERFGYWKDSGIRLDGLAVKALTRLFLTTWYINRGEISDFDQYH | not soluble
18 | SMGSDDEEQEDPADYCKGGYHPVKIGDLFNGRYHVIRKLGWGHFSTVWLCWDMQGKRFVAMKVVKSAQHYTETALDEIKLLKCVRESDPSDPNKDMVVQLIDDFKISGMNGIHVCMVFEVLGHHLLKWIIKSNYQGLPVRCVKSIIRQVLQGLDYLHSKCKIIHTDIKPENILMCVDDAYVRRMAAEATEWQKAGAPPPSGSAVSTAPAADLLVNPLDPRNADKIRVKIADLGNACWVHKHFTEDIQTRQYRSIEVLIGAGYSTPADIWSTACMAFELATGDYLFEPHSGEDYSRDEDHIAHIIELLGSIPRHFALSGKYSREFFNRRGELRHITKLKPWSLFDVLVEKYGWPHEDAAQFTDFLIPMLEMVPEKRASAGECLRHPWLNS | soluble
19 | SMKFQARVLTLYPEMFPGFLGCSLAGQALKQGIWSLETVQIRDFALDKHHSVDDTPAGGGAGMVMRADVLAAALDSCPNDSPRLLMSPRGRLLNQAYARSLARSSGVTLVCGRFEGVDERIIEARELEEVSIGDYILSGGETAALVLLDAIVRLLPGVMGNEISAKCESFENGLLEHPQYTRPAVFEGRGIPPVLTSGHHKAIANWRQQQAESLTRQRRPDLYALYNKNRQKT | soluble
